Source: patent US20050003397A1

Target: BAT monoclonal antibody
Assay: competition phage ELISA; BAT (6 µg/ml) pre-incubated with increasing synthetic Peptide A, binding to immobilized Peptide A phage read

IC50: 660 nM
Binder: PRRIKPRKIMLQ [Peptide A (synthetic peptide of SEQ ID NO 1)]
